Laboratory results reported in IntAct's records for PubMed 29892012.

B1: Protein VAC14 homolog (Homo sapiens), Q08AM6 (parent)
chain: MNPEKDFAPLTPNIVRALNDKLYEKRKVAALEIEKLVREFVAQNNTVQIKHVIQTLSQEFALSQHPHSRKGGLIGLAACSIALGKDSGLYLKELIEPVLTCFNDADSRLRYYACEALYNIVKVARGAVLPHFNVLFDGLSKLAADPDPNVKSGSELLDRLLKDIVTESNKFDLVSFIPLLRERIYSNNQYARQFIISWILVLESVPDINLLDYLPEILDGLFQILGDNGKEIRKMCEVVLGEFLKEIKKNPSSVKFAEMANILVIHCQTTDDLIQLTAMCWMREFIQLAGRVMLPYSSGILTAVLPCLAYDDRKKSIKEVANVCNQSLMKLVTPEDDELDELRPGQRQAEPTPDDALPKQEGTASGGPDGSCDSSFSSGISVFTAASTERAPVTLHLDGIVQVLNCHLSDTAIGMMTRIAVLKWLYHLYIKTPRKMFRHTDSLFPILLQTLSDESDEVILKDLEVLAEIASSPAGQTDDPGPLDGPDLQASHSELQVPTPGRAGLLNTSGTKGLECSPSTPTMNSYFYKFMINLLKRFSSERKLLEVRGPFIIRQLCLLLNAENIFHSMADILLREEDLKFASTMVHALNTILLTSTELFQLRNQLKDLKTLESQNLFCCLYRSWCHNPVTTVSLCFLTQNYRHAYDLIQKFGDLEVTVDFLAEVDKLVQLIECPIFTYLRLQLLDVKNNPYLIKALYGLLMLLPQSSAFQLLSHRLQCVPNPELLQTEDSLKAAPKSQKADSPSIDYAELLQHFEKVQNKHLEVRHQRSGRGDHLDRRVVL
partner: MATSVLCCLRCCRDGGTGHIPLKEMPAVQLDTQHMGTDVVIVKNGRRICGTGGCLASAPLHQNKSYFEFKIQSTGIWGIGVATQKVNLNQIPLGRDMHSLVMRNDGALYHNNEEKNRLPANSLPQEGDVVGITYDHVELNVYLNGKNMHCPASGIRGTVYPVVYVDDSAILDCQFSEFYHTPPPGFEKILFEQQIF
B2: Structure-specific endonuclease subunit SLX4 (Homo sapiens), Q8IY92 (parent)
chain: MKLSVNEAQLGFYLGSLSHLSACPGIDPRSSEDQPESLKTGQMMDESDEDFKELCASFFQRVKKHGIKEVSGERKTQKAASNGTQIRSKLKRTKQTATKTKTLQGPAEKKPPSGSQAPRTKKQRVTKWQASEPAHSVNGEGGVLASAPDPPVLRETAQNTQTGNQQEPSPNLSREKTRENVPNSDSQPPPSCLTTAVPSPSKPRTAQLVLQRMQQFKRADPERLRHASEECSLEAAREENVPKDPQEEMMAGNVYGLGPPAPESDAAVALTLQQEFARVGASAHDDSLEEKGLFFCQICQKNLSAMNVTRREQHVNRCLDEAEKTLRPSVPQIPECPICGKPFLTLKSRTSHLKQCAVKMEVGPQLLLQAVRLQTAQPEGSSSPPMFSFSDHSRGLKRRGPTSKKEPRKRRKVDEAPSEDLLVAMALSRSEMEPGAAVPALRLESAFSERIRPEAENKSRKKKPPVSPPLLLVQDSETTGRQIEDRVALLLSEEVELSSTPPLPASRILKEGWERAGQCPPPPERKQSFLWEGSALTGAWAMEDFYTARLVPPLVPQRPAQGLMQEPVPPLVPPEHSELSERRSPALHGTPTAGCGSRGPSPSASQREHQALQDLVDLAREGLSASPWPGSGGLAGSEGTAGLDVVPGGLPLTGFVVPSQDKHPDRGGRTLLSLGLLVADFGAMVNNPHLSDVQFQTDSGEVLYAHKFVLYARCPLLIQYVNNEGFSAVEDGVLTQRVLLGDVSTEAARTFLHYLYTADTGLPPGLSSELSSLAHRFGVSELVHLCEQVPIATDSEGKPWEEKEAENCESRAENFQELLRSMWADEEEEAETLLKSKDHEEDQENVNEAEMEEIYEFAATQRKLLQEERAAGAGEDADWLEGGSPVSGQLLAGVQVQKQWDKVEEMEPLEPGRDEAATTWEKMGQCALPPPQGQHSGARGAEAPEQEAPEEALGHSSCSSPSRDCQAERKEGSLPHSDDAGDYEQLFSSTQGEISEPSQITSEPEEQSGAVRERGLEVSHRLAPWQASPPHPCRFLLGPPQGGSPRGSHHTSGSSLSTPRSRGGTSQVGSPTLLSPAVPSKQKRDRSILTLSKEPGHQKGKERRSVLECRNKGVLMFPEKSPSIDLTQSNPDHSSSRSQKSSSKLNEEDEVILLLDSDEELELEQTKMKSISSDPLEEKKALEISPRSCELFSIIDVDADQEPSQSPPRSEAVLQQEDEGALPENRGSLGRRGAPWLFCDRESSPSEASTTDTSWLVPATPLASRSRDCSSQTQISSLRSGLAVQAVTQHTPRASVGNREGNEVAQKFSVIRPQTPPPQTPSSCLTPVSPGTSDGRRQGHRSPSRPHPGGHPHSSPLAPHPISGDRAHFSRRFLKHSPPGPSFLNQTPAGEVVEVGDSDDEQEVASHQANRSPPLDSDPPIPIDDCCWHMEPLSPIPIDHWNLERTGPLSTSSPSRRMNEAADSRDCRSPGLLDTTPIRGSCTTQRKLQEKSSGAGSLGNSRPSFLNSALWDVWDGEEQRPPETPPPAQMPSAGGAQKPEGLETPKGANRKKNLPPKVPITPMPQYSIMETPVLKKELDRFGVRPLPKRQMVLKLKEIFQYTHQTLDSDSEDESQSSQPLLQAPHCQTLASQTYKPSRAGVHAQQEATTGPGAHRPKGPAKTKGPRHQRKHHESITPPSRSPTKEAPPGLNDDAQIPASQESVATSVDGSDSSLSSQSSSSCEFGAAFESAGEEEGEGEVSASQAAVQAADTDEALRCYIRSKPALYQKVLLYQPFELRELQAELRQNGLRVSSRRLLDFLDTHCITFTTAATRREKLQGRRRQPRGKKKVERN
partner: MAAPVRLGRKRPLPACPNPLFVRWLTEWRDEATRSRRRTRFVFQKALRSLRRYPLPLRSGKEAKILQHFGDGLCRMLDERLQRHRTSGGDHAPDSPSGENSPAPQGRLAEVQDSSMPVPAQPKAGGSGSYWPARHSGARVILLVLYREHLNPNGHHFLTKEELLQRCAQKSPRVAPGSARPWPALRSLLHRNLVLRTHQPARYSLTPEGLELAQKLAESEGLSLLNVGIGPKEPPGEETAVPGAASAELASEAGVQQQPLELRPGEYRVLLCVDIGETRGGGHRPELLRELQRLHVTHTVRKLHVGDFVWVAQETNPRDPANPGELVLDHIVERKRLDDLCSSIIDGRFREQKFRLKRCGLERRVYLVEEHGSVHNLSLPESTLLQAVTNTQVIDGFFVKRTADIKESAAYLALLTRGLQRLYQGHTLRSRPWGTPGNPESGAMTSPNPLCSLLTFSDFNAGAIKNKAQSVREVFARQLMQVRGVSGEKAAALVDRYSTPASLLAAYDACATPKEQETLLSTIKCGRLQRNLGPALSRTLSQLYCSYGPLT
B3: Cyclic AMP-dependent transcription factor ATF-4 (Homo sapiens), P18848 (parent)
chain: MTEMSFLSSEVLVGDLMSPFDQSGLGAEESLGLLDDYLEVAKHFKPHGFSSDKAKAGSSEWLAVDGLVSPSNNSKEDAFSGTDWMLEKMDLKEFDLDALLGIDDLETMPDDLLTTLDDTCDLFAPLVQETNKQPPQTVNPIGHLPESLTKPDQVAPFTFLQPLPLSPGVLSSTPDHSFSLELGSEVDITEGDRKPDYTAYVAMIPQCIKEEDTPSDNDSGICMSPESYLGSPQHSPSTRGSPNRSLPSPGVLCGSARPKPYDPPGEKMVAAKVKGEKLDKKLKKMEQNKTAATRYRQKKRAEQEALTGECKELEKKNEALKERADSLAKEIQYLKDLIEEVRKARGKKRVP
partner: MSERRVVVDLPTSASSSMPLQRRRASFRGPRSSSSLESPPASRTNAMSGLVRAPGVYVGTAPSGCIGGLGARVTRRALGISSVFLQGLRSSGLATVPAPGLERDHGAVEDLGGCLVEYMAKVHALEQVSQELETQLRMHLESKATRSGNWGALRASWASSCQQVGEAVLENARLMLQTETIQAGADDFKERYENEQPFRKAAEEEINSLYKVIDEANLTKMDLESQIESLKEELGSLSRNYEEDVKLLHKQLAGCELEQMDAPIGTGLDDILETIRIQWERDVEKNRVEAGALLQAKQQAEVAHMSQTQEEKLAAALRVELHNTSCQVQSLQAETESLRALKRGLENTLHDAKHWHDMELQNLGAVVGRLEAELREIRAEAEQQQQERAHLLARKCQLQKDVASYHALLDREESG
B4: Casein kinase II subunit alpha (Homo sapiens), P68400 (parent)
chain: MSGPVPSRARVYTDVNTHRPREYWDYESHVVEWGNQDDYQLVRKLGRGKYSEVFEAINITNNEKVVVKILKPVKKKKIKREIKILENLRGGPNIITLADIVKDPVSRTPALVFEHVNNTDFKQLYQTLTDYDIRFYMYEILKALDYCHSMGIMHRDVKPHNVMIDHEHRKLRLIDWGLAEFYHPGQEYNVRVASRYFKGPELLVDYQMYDYSLDMWSLGCMLASMIFRKEPFFHGHDNYDQLVRIAKVLGTEDLYDYIDKYNIELDPRFNDILGRHSRKRWERFVHSENQHLVSPEALDFLDKLLRYDHQSRLTAREAMEHPYFYTVVKDQARMGSSSMPGGSTPVSSANMMSGISSVPTPSPLGPLAGSPVIAAANPLGMPVPAAAGAQQ
partner: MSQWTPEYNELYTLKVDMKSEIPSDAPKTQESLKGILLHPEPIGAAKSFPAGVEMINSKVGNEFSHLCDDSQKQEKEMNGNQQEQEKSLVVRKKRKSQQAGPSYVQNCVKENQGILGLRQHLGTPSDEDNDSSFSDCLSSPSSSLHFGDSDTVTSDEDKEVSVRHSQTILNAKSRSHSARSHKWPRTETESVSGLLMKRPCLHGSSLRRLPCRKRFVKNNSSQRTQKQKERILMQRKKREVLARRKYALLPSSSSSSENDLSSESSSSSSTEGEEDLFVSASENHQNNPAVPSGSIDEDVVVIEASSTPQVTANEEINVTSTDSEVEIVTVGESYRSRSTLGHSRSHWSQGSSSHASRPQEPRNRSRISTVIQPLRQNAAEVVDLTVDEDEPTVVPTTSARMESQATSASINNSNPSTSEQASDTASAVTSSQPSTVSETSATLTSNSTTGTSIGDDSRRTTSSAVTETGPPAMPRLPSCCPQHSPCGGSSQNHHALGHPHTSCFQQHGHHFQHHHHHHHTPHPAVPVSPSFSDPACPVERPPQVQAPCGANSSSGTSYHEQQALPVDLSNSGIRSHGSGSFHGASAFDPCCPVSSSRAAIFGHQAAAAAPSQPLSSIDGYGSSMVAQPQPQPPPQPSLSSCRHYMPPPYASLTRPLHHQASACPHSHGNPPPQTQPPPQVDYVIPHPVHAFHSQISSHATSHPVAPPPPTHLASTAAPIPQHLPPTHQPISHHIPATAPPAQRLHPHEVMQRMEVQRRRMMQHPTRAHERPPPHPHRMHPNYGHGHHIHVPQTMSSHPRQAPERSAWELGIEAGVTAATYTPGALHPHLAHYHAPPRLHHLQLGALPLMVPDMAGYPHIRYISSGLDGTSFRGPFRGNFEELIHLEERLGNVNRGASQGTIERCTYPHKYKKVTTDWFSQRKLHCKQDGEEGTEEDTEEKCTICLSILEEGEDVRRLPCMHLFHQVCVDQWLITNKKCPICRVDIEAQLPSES

Variants of: B1
Conditions: with spry7_human SPRYD7, Q5W111

effect of a mutation on the interaction	Variant
with no effect	A127S

Variants of: B2
Conditions: with mus81_human MUS81, Q96NY9

effect of a mutation on the interaction	Variant
disrupting interaction strength	F708L

Variants of: B2
Conditions: with mus81_human MUS81, Q96NY9
Remark: another data set of the same source

effect of a mutation on the interaction	Variant
with no effect	V886L

Variants of: B3
Conditions: with bfsp2_human BFSP2, Q13515

effect of a mutation on the interaction	Variant
with no effect	L180F

Variants of: B4
Conditions: with rn111_human RNF111, Q6ZNA4

effect of a mutation on the interaction	Variant
with no effect	K198R
